Data published in a protein production outcome set (Wang et al. 2014).

Assay: label from the status in PepcDB records

Sequence	protein production
VDVENPILITSFPGIGLVGTIATAHYIMELKLESIGIVDSRLLPPVASLYEGVILPPVRVYQSADLGFVLIHSDVPIIPQAAIDMSKKIVQFAAEINARRVYSFAGVATFEDKKRVFAAATSKELLEEVKDHAEIFKTGTISGIAGSIMNECVAAKMPGIVLLGETLGFNPDPRAAASLIEAVNKIMNWNVSVEKLLKEAEMIEAQMQKLAEQARMQEERKEEFPMYG	failed
VEGRTVTYGQQNGTARTGYLAAPADVDSVRSARGGDALPGIVVIHEWWGLNDNVRAATRRLAGEGYRALAVDLYGGAVAETPDSAQALMGQAMREPSRLVENVRDGRAYLSSEADAPRTALLGWCFGGGMTYRTLAEEASAFDAAVAYYGTPDPLAGEALQALETPILAHFGTQDQAVPIDAARKFRDRMEDAGTSLAYHEYDAGHAFANPSGESYEPAAAEQAWTRTTDFLQTHL	failed
VEIRTGEFEDVAGITDIFNFYIEHTNARFEEFPFTLENREEWFSQFSRTTKYQIYVAVENGVLQGFACSQKYRAIPAFDDTVEVSVYLAQEAKGKGLGSKLYTQLFSSIRAYGVHRILSGVALPNDASVALHKRFGFREVGIFNEYAKKHGQYISSVWLEKALNVESAL	not failed
VEPSEENSKDCVVCQNGTVNWVLLPCRHTCLCDGCVKYFQQCPMCRQFVQESFAL	not failed
VGSVLEIKDPENLKNLGSLIGEEIAKLHQALNSVNSNNELVKRELYKLVYEWALPNLEKNEHVDQDVVRTMNQIHSDFKKTITSLRKQIIHRDMHLSNVIFKDNEFQGFIDFELLERNVRVFDLCYCCTSILSELHSDEELRGKWQHIISKIFEGYNKQSILTREELQAIWYVMLSIQVIFITYFVQLPDLLKLNEEMFF	failed
VHCLFVGAGSIAAEYAAELADSPLSLAGVCDLEEDRATALAAAHDCPAFTDLDTALSAVDAPLVVNLTNHAAHAPVTRTALEAGRHVYSQKPLALDEAAAAELLALAQDRNLALGCAPGTPDAPSQRRAGQMLADGRMGPVQLGYAHAHVGRV	failed
VIKFSSEDCGTCHKMSHYDANVAEELGAEFVSVMLQDTEAYRKYRKVLLKQYPNKEGMGWPTYLLVTDPEGDFTIHGELKGGMPKGEFRTRLGALLA	failed
VKNGNDTRMTLLNNWESTYFDFDENKLIGLMDEATKLGVDMFLLDDGWFANKYPRSSDHQGLGDWEETADKLPNGVGRLVEEAQKKGIKFGIWIEPEMVNPKSELYEKHKDWVIHLPNRDEYYFRNQMVLDLSNPKVQDHVFGVVDNLMTKYPGIAFFKWDCNSPITNIYSVYLKDKQSHLYVDYVRGLYKVLDRIKAKYPNLPMMLCAGGGGRSDYEALKYFTEFWPSDNTDPIERLFIQWGYSQIFPSKTLCAHVTTWNRGTSIKFRTDVAMMCKLGFDIKLEDMNQNEHLYCDQAVKNYNRLKPVILEG	failed
VKSKAKKTVDAHSDEYKIRRERNNIAVRKSRDKAKMRNLETQHKVLELTAENERLQKKVEQLSRELSTLRNLFKQLPE	not failed
VKTPGTRYVTHKQLDEKLKNFVTKTEFKEFQTVVMESFAVQNQNIDAQGEQIKELQVEQKAQGKTLQLILEALQGINKRLDNLES	not failed
VKTWPAPTAPTPVRATVTVPGSKSQTNRALVLAALAAAQGRGASTISGALRSRDTELMLDALQTLGLRVDGVGSELTVSGRIEPGPGARVDCGLAGTVLRFVPPLAALGSVPVTFDGDQQARGRPIAPLLDALRELGVAVDGTGLPFRVRGNGSLAGGTVAIDASASSQFVSGLLLSAASFTDGLTVQHTGSSLPSAPHIAMTAAMLRQAGVDIDDSTPNRWQVRPGPVAARRWDIEPDLTNAVAFLSAAVVSGGTVRITGWPRVSVQPADHILAILRQLNAVVIHADSSLEVRGPTGYDGFDVDLRAVGELTPSVAALAALASPGSVSRLSGIAHLRGHETDRLAALSTEINRLGGTCRETPDGLVITATPLRPGIWRAYADHRMAMAGAIIGLRVAGVEVDDIAATTKTLPEFPRLWAEMVGPGQGWGYPQPRSGQRARRATGQGSGG	not failed
VLASILLSQAAYESNYGSSLLSVKYHNIYSLPARPGQEHIYLKDNVYSKGKWQYQKVDFAVFRDWSSSMSSYLEELRQGRWGESTYKEVAGTTSYKVAAEKLQAAGFNSDPDYTKHLISIIETYNL	failed
VPLEARMKQFKDMLLERGVSAFSTWEKELHKIVFDPRYLLLNPKERKQVFDQYV	failed
VPPDTLHSLPKSQVKRQEVISELLVTEAAHVRMLRVLHDLFFQPMAECLFFPLEELQNIFPSLDELIEVHSLFLDRLMKRRQESGYLIEEIGDVLLARFDGAEGSWFQKISSRFCSRQSFALEQLKAKQRKDPRFCAFVQEAESRPRCRRLQLKDMIPTEMQRLTKYPLLLQSIGQNTEEPTEREKVELAAECCREILHHVNQAVRDMEDLLRLKDYQRRLDLSHLRQSSDPMLSEFKNLDITKKKLVHEGPLTWRVTKDKAVEVHV	failed
VSERKAMQKRLTRRERRFRMMFEGHSAPMLLIDEETGAIEQANAAAVEFYGYERDILMSMSIQDINQLPAEEVARERREAAEDGDEFLFEHELASGAVRTVRVLSAPIPNLDRAGTLLFSVIHD	failed
VSGFQRLQKPVVSQPDFRRQPVSETMQVYLKQAADPGRDVGLYWMATDFENRRFPGKVSPSGFQKLYRQWRNQTGWDAYVQSCRAIWNDVKYFPIPQSLDDTEDKISYVDSWMFERNYGGKRGHEGTDIMAEKNTPGYYPVVSMTDGVVTEKGWLEKGGWRIGITAPTGAYFYYAHLDSYAELEKGDPVKAGDLLGYMGDSGYGEEGTTGEFPVHLHLGIYLKEGTEEISVNPYPVLRYAENARIKCVYSR	not failed
VSVGTHPTFENSPSGTVLTSPPDGSAVDRATDAARRVVDALLRTDRGNANLERVAEELNSIAGHLEEHAPAVAERLIDMWNGEGVTRHDPVTGPENALAPPVVLEGLSDGSVRGTVTLTIPYQGPPGHVHGGVSALLLDHVLGVANAWGGKAGMTAQLSTRYHRPTPLFEPLTLTGKLMSVDGRKITTAGDIRTADGQVCVSVEGLFVDKTVPRPR	not failed

Sequence	protein production
VTDILREIGMIARALDSISNIEFKELSLTRGQYLYLVRVCENPGIIQEKIAELIKVDRTTAARAIKRLEEQGFIYRQEDASNKKIKRIYATEKGKNVYPIIVRENQHSNQVALQGLSEVEISQLADYLVRMRKNVSEDWEFVKKGNTRNY	not failed
VTIDNIQKTVAEYYKIKVADLLSKRRSRSVARPRQXAXALAKELTNHSLPEIGDAFGGRDHTTVLHACRKIEQLREESHDIKEDFSNLIRTLSS	not failed
VTRRIAICAPSTPFTREDSARVIALAAAEFPDLSLSFHEQCFASEGHFAGSDALRLSAFLECANDDAFEAVWFVRGGYGANRIAEDALARLGRAASAKQYLGYSDAGTLLAALYAHRIGRSVHAPMPVDIRRPEGESAVRRTLGWLAGAREGLEPTLGAGAPAVAFNLMTLAMLCGTRLLPDLSGHVVMIEEVAEHHYAVDRLLFHVTSCLADAGIAGLRLGRVSDVPENDRPFGCSVEEMARHWCHRAGIAFLGTADIGHDVDNRIVPFGLA	not failed
VVAPITTGYTVKISNYGWDQSDKFVKIYITLTGVHQVPTENVQVHFTERSFDLLVKNLNGKSYSMIVNNLLKPISVEGSSKKVKTDTVLILCRKKVENTRWDYLTQVEKECKEK	not failed
VVFFRHLVSDDGSVRHTGDNLVGGVGQGGDDEAILVDLQRVPVHIDQIVFTVNSFTGQTFQEVQNAFCRLVDETNGQELARYTLAGGGAFTAQIMAKVHRAGQGWSMTAIGTPANGRTFQDLMPAILPVL	failed
VVKVALFVRLEAKPGKEKEVESFLMGGLPIVNEEPATTAWFGIRLGPSTFGIFDAFPNEAGRQAHLSGKVAAALMAKAGELFSEPPSIEKVDILAAKLPG	failed
VYPLELTLEEIFHGCLKKVAHKRKVLLFSGEYVEEERQLTVDVKPGLPTGTRFVFEGEGNKTPKKEPGPVVFVLKPKPHPRFVRRGSDLVHKVTLPLHHALIGTTLDIRTLDDRDLKVPISDIMRPGSSLTVPGEGMPLPATPSARGNLVIEIDLLFPTHLTETQKMLLRSAF	not failed
WERLRMLLEVCQFSRDASVAEAWLIAQEPYLASGDFGHTVDSVEKLIKRHEAFEKSTASWAERFAALEKPTTLELKERQIA	failed
WGLSVERSTYFLAPADRHYLADYARQAEDAWRREGAAGAERFRKELSAKEDTWVALVGPHLESLGSTPLSAEESSHLTFMRKLDWPMSRRLQDELPYVSIEFPGHPEQGRLVIQLPERLLPG	not failed
WILWSLTKISNHQEINEIIDQILQLTSDVFAADYTSVSFINNQQIARTISYYKFGKKEENISFSLINTPCAKVIQTKAICYFNDVQKQFPNDKLLKKMKINTYLAGPITNTQDEVIGIMTILCKRKVEFDTLNNTLFGLFLSRINSEIERLINLRKLE	failed
WKTGGRFLTLGVTLIMFIIVSNFLGLPFMYSATEAGEHIAWWRSPTSDPAVTLTLAVMVVTLTHYYGIKMKGTKEYVKGYFQPMKFLFPLKVIEEFANTLTLGLRLFGNIYAGEILLGLLAKLGGASFLGALGALVPMLAWMGFSVFVGSIQAFIFVMLTMVYMAHKVSHDH	failed
WTGEDSAEPNSDSAEWIRDMYAKVTEIWQEVMQRRDDDGTLHAACQVQPSATLDAAQPRVTGVVLFRQLAPRAKLDAFFALEGFP	failed
WVSNIDPAETFRHTELHVVKSVYDGLLTQNSNGGIEPALAHEWKMEENVMTLWLRPGIFRHDGELLSIDDVVWSLERLKQIKGPVYELWQCIETVTAETPNCLKIVLKRANQFFPYMLATPHASILCRDTASFGSGYSYHIGTGPFRISSWN	failed
YAHLRAGALRRLLQAQRLLPTGVRFLVLEGYRPPQLQRRYFEEYAATMRAAHPDEAPDRIRELTSAYISPPEVAPHVSGGAVDLTLCGADGTELPLGTEVNATPEESEGACRTAAPNISVEARANRAVMDRALTAVGFVNYPTEWWHWSYGDR	failed
YCVRGEKLVLFVTGVCPRNCFYCPLSPWRRKDVAYANERPIRKIEDIIEEAKIQEARGAGVTGGDPLARLNRTVEYIRTLKEEFGKKFHIHLYTTGILADKRALSMLYDAGL	failed
YESIDLKAVLFDMDGVLFDSMPNHAESWHKIMKRFGFGLSREEAYMHEGRTGASTINIVSRRERGHDATEEEIKAIYQAKTEEFNKCPKAERMPGALEVLTKIKSEGLTPMVVTGSGQTSLLDRLNHNFPGIFQANLMVTAFDVKYGKPNPEPYLMALKKGGFKPNEALVIENAPLGVQAGVAAGIFTIAVNTGPLHDNVLLNEGANLLFHSMPDFNKNWETLQSALKQ	failed
YGDINLNLLKDKGYTTLQDEAIKIFNSLQQLESMSDPIPIIQGILQTGHDLRPLRDELYCQLIKQTNKVPHPGSVGNLYSWQILTCLSCTFLPSRGILKYLKFHLKRIREQFPGTEMEKYALFTYESLKKTKCREFVPSRDEIEALIHRQEMTSTVYCHGGGSCKITINSHTTAGEVVEKLIRGLAMEDSRNMFALFEYNGHVDKAIESRTVVADVLAKFEKLAATSEVGDLPWKFYFKLYCFLDTDNVPKDSVEFAFMFEQAHEAVIHGHHPAPEENLQVLAALRLQYLQGDYTLHAAIPPLEEVYSLQRLKARISQSTKTFTPCERLEKRRTSFLEGTLRRSFRTGSVVRQKVEEEQMLDMWIKEEVSSARASIIDKWRKFQGMNQEQAMAKYMALIKEWPGYGSTLFDVECKEGGFPQELWLGVSADAVSVYKRGEGRPLEVFQYEHILSFGAPLANTYKIVVDERELLFETSEVVDVAKLMKAYISMIVKKRYSTTRSASSQGSSR	failed
